Test results from US7981423B2, “Rage fusion proteins” (Transtech Pharma, Inc., priority 2004, dated 2011).

Key:
APP transgenic mice = assay: Mouse model of AD (APP transgenic mice); format: in vivo
Procedure: Experiments were performed to evaluate whether TTP-4000 could affect amyloid formation and cognitive dysfunction in a mouse model of AD. The experiments utilized transgenic mice expressing the human Swedish mutant amyloid precursor protein (APP) under the control of the PDGF-B chain promoter. Over time, these mice generate high levels of the RAGE ligand, amyloid beta (Aβ).
The APP mice (male) used in this experiment were designed by microinjection of the human APP gene (with the Swedish and London mutations) into mouse eggs under the control of the platelet-derived growth factor B (PDGF-B) chain gene promoter. The mice were generated on a C57BL/6 background and were developed by Molecular Therapeutics Inc. Animals were fed ad libituin and maintained by brother sister mating. The mice generated from this construct develop amyloid deposits starting at 6 months of age. Animals were aged for 6 months and then maintained for 90 days and sacrificed for amyloid quantification.
APP transgenic mice were administered vehicle or TTP4000 every other day [qod (i.p.)] for 90 days starting at 6 months of age. At the end of the experiment, animals were sacrificed and examined for AP plaque burden in the brain (i.e., plaque number). A 6-month control APP group was used to determine the baseline of amyloid deposits. In addition, at the end of the study, the animals were subjected to behavioral (Morris water maze) analysis. The investigators were blinded to the study compounds. Samples were given to the mice at 0.25 ml/mouse/every other day.
For histological examination, the animals were anesthetized with an intraperitoneal injection (IP) of sodium pentobarbital (50 mg/kg). The animals were transcardially perfused with 4° C., phosphate-buffered saline (PBS) followed by 4% paraformaldehyde. The brains were removed and placed in 4% paraformaldehyde over night. The brains were processed to paraffin and embedded. Ten serial 30-μm thick sections through the brain were obtained. Sections were subjected to primary antibody overnight at 4° C. (Aβ peptide antibody) in order to detect the amyloid deposits in the brain of the transgenic animals (Guo et al., J. Neurosci., 22:5900-5909 (2002)). Sections were washed in Tris-buffered saline (TBS) and secondary antibody was added and incubated for 1 hour at room temperature. After washing, the sections were incubated as instructed in the Vector ABC Elite kit (Vector Laboratories) and stained with […] (DAB). The reactions were stopped in water and cover-slipped after treatment with xylene. The amyloid area in each section was determined with a computer-assisted image analysis system, consisting of a Power Macintosh computer equipped with a Quick Capture frame grabber card, Hitachi CCD camera mounted on an Olympus microscope and camera stand. NIH Image Analysis Software, v. 1.55 was used. The images were captured and the total area of amyloid was determined over the ten sections. A single operator blinded to treatment status performed all measurements. Summing the amyloid volumes of the sections and dividing by the total number of sections was done to calculate the amyloid volume.
For quantitative analysis, an enzyme-linked immunosorbent assay (ELISA) was used to measure the levels of human total Aβ, Aβtotal and Aβ1-42 in the brains of APP transgenic mice (Biosource International., Camarillo, Calif.). Aβtotal and Aβ1-42 were extracted from mouse brains by guanidine hydrochloride and quantified as described by the manufacturer. […]

Fc receptor = Fc receptor activation, TNF-α secretion from THP-1 cells; format: cell-based; details: FIG. 12
Text: Fc stimulation results in TNF-α secretion.

[1] = Pharmacokinetic profile of TTP-4000 after IV injection; format: in vivo, monkeys; details: single IV bolus 5 mg/kg; plasma; after saturation of ligands; FIG. 11
Procedure: Following collection, the tubes were placed on wet ice (maximum 30 minutes) until centrifugation under refrigeration (at 2 to 8° C.) at 1500×g for 15 minutes. Each harvested plasma sample was then stored frozen (−70° C.±10° C.) until assayed for RAGE polypeptide using an ELISA at various time-points following the injection, as described in Example 6.
Initially, 50 uL of the RAGE specific monoclonal antibody 1HB1011 at a concentration of 10 ug/mL in 1×PBS pH 7.3 is coated on plates via overnight incubation. When ready for use, plates are washed three times with 300 uL of 1× Imidazole-Tween wash buffer and blocked with 1% BSA. […] The samples are allowed to incubate at room temperature for one hour. After incubation, the plates are plates are washed three times. A Goat Anti-human IgG1 1 (Sigma A33 12) AP conjugate in 1×PBS with 1% BSA is added and allowed to incubate at room temperature for 1 hour. The plates are washed three times. Color was elucidated with paranitrophenylphosphate.

B1: TTP-4000: four domain RAGE fusion protein (SEQ ID NO: 32): human RAGE amino acids 1-251 linked to CH2 and CH3 domains of human IgG (protein)
chain: MAAGTAVGAWALVLSLWGAVVGAQNITARIGEPLVLKCKGAPKKPPQRLEWKLNTGRTEAWKVLSPQGGGPWDSVARVLPNGSLFLPAVGIQDEGIFRCQAMNRNGKETKSNYRVRVYQIPGKPEIVDSASELTAGVPNKVGTCVSEGSYPAGTLSWHLDGKPLVPNEKGVSVKEQTRRHPETGLFTLQSELMVTPARGGDPRPTFSCSFSPGLPRHRALRTAPIQPRVWEPVPLEEVQLVVEPEGGAVAPPSVFLFPPKPKDTLMISRTPEVTCVVVDVSHEDPEVKFNWYVDGVEVHNAKTKPREEQYNSTYRVVSVLTVLHQDWLNGKEYKCKVSNKALPAPIEKTISKAKGQPREPQVYTLPPSRDELTKNQVSLTCLVKGFYPSDIAVEWESNGQPENNYKTTPPVLDSDGSFFLYSKLTVDKSRWQQGNVFSCSVMHEALHNHYTQKSLSLSPGK
inflammatory cytokines IL-1 and TNF-α (APP transgenic mice; data not shown): can reduce | Aβ plaques in the brain (APP transgenic mice; treated for 3 months, versus vehicle and human IgG1, FIG. 14A): fewer Aβ plaques | cognitive dysfunction (Morris water maze) (APP transgenic mice; treated for 3 months, versus vehicle and human IgG1, FIG. 14B): less cognitive dysfunction | stimulation of TNF-α release from cells (in words) (Fc receptor; conditions where human IgG stimulation of TNF-α release is detected): does not stimulate TNF-α release | TNF generated (Fc receptor; well precoated with 10 μg/well heat aggregated protein, THP-1 cells, 24 hours): less than 2 ng/well | terminal half-life [1]: greater than 300 hours
